In the nanobody polyreactivity screen of Harvey et al. (2022):

Assay: yeast display, Sf9 membrane polyspecificity reagent, FACS + sequencing; frameworks hold sequencing errors
Procedure, shortened: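 Galactose induction of a Saccharomyces cerevisiae BJ5465 synthetic nanobody display library ran 36–48 hours. The cells were then stained for 1 hour at 4 °C with 10% biotinylated, detergent-solubilized Sf9 membrane reagent, pulled down on streptavidin microbeads and FACS-sorted into low and high (top ~1%) gates on expression and reagent-binding fluorescence. Labels for polyreactivity follow the gate of origin.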

Sequence | polyreactivity (PSR sort gate)
QVQLVESGGGLVHAGGSLRLSCAASGRTFKYYGMGWYREAPGKERELVATISRSSSRTYYADSVKGRFTISRDNAKNTVYLQMNSLKPEDTAVYYCAADRWGARRKQYDENGYWGQGTQVTVSS | high polyreactivity
QVQLVESGGGLVHAGGSLRLSCAASGRTFNGYVMGWYRQAPGKERELVAAITNRDGSTYYADSVKGRFTISRDNAKNTVYLQMYSLKPEDSAVYYCAAPVWLWADRYDSWGQGTQVTVSS | low polyreactivity
QVQLVESGGGLVHAGGSLRLSCAASGRTFYYNAKGWYRQAPGKESELVAAISSGDSTYYADSVKGRFTISRDNAKNTVSLQLNSLKPEDTAVYYCYADTGLGSLDFDKRDYWGQGTQVTVSS | low polyreactivity
QVQLVESGGGLVHAGGSLRLSCAASGSIFAANAMGWYRQAPGKERELVAAISSSGDITYYADSVKGRFTISRDNAKNSVFLQMNSLKPEDTAVYYCAARRYPYHEDNYWGQGTQVTVSS | high polyreactivity
QVQLVESGGGLVHAGGSLRLSCAASGSIFAGNAMGWYRQAPGNERELVAGISRSGGSTNYADSVKGRFTISRDNAKNTVYLQMIRLKPEDTAVYYFAASATPSGVGMDYWGQGTQVNVSS | low polyreactivity
QVQLVESGGGLVHAGGSLRLSCAASGSIFFHNAMGWYRQAPGKERELVAAISGGGSTTYADSVKGRFTISRDNAKNTVYLQMNSLKPEDTAVYYCAKSYRYYALHYSPGWYNYWGQGTQVTVSS | high polyreactivity
QVQLVESGGGLVHAGGSLRLSCAASGSIFLLYAMGWYRQAPGKERELVAAITSSGGSTNYADSVKGRFTISRDNAKNTVYLQMNSLKPEDTAVYYCATAPYAYTILGSRFDYWGQGTQVTVSS | low polyreactivity
QVQLVESGGGLVHAGGSLRLSCAASGSIFQYNAMGWYRQAPWKERELVAAITSTGDTNYADSVKGRFTISRDNAKNTVYLQMNSLKPEDTAVYYCAADVYGTVRRVGWYYVGEGYDYWGQGTQVTVSS | low polyreactivity
QVQLVESGGGLVHAGGSLRLSCAASGSIFRVYTMGWYRQAPGKERELVAAISRSGGRTYYADSVKGRFTISRDNAKNTVYLQMNSLKPEDTAVYYCATRPKVAYEYDYWGQGTQVTVSS | high polyreactivity
QVQLVESGGGLVHAGGSLRLSCAASGSIFSAYAMGWYRQAPGKERELVAAISRSGGRTYYADSVKGRFTISRDNAKNTVYLQMNSLKPEDTAVYYCAAYFTYYSTLGRWYRYDYWGQGTQVTVSS | high polyreactivity
QVQLVESGGGLVHAGGSLRLSCAASGSIFYRNVMGWYRQAPGKERELVAAISRSGGSTYYADSVKGRFTISRDNAKNTVYLQMNSLKPEDTAVYYCAVRYSPFYYWGQGTQVTVSS | high polyreactivity
QVQLVESGGGLVHAGGSLRLSCAASGSTFGDNAMGWYRQAPGKERELVAAITSGTSTNYADSVKGRFTISRDNAKNTVYLQMNSLKPEDTAVYYCAAQYYGVAKQGLDEEDYWGQGTQVTVSS | low polyreactivity
QVQLVESGGGLVHAGGSLRLSCAASGSTFKIYAMGLYRQAPGKERELVASIRGRGGSTYYADSVKGRFTISRDNAKNTVYLQMNSLKPEDTAVYYCNATYGHRYPACISYDYWGQGTQGTVSS | high polyreactivity
QVQLVESGGGLVHAGGSLRLSCAASGSTFPGYAMGWYRQAPGKERELVAAISKRGGSTRYADSVKGRFTISRDNANNTVYLQMNSLKPEDTAVYYCAASYSYSGSGGGYWGQGTQVTVSS | high polyreactivity
QVQLVESGGGLVHAGGSLRLSCAASGSTFRHNAMGWYRQAPGKERELVAAINRSGVSTHYADSVKGRFTISRDNAKNTVYLQMNSLKPEDTAVYYCAVDSYPKSLWYYGGVYSPLDYWGQGTQVTVSS | low polyreactivity
QVQLVESGGGLVHAGGSLRLSCAASGSTFVEYVMGWYRQAPGKERELVASIDVGTTSTRYADSVKGRFTISRDNAKNTVYLQMNSLKPEDTAVYYCNADGYYSGYWTNYDYWGQGTQVTVSS | low polyreactivity
QVQLVESGGGLVHAGGSLRLSCAASGSTLGSYAMGWYRQAPGKERELVARITTGGGTSYADSVKGRFTISRDNAKNTVYLQMNSLKPEDTAVYYCAATFIYGARTYGYWGQGTQVTVSS | high polyreactivity
QVQLVESGGGLVHAGGSLRLSCADSGRIIGINAMGCYRQAPGKERELVAAINWSGGSTYYADSVKGRFTISRDNAKNTVYLQMNSLKPEDTAVYYCAAQKYKRVGYWGLGTQVTVSS | high polyreactivity
QVQLVESGGGLVHAGGSLRLSCAPSRIFVYNAMGWYRQAPGKERELVATITSSGGITYYADSVKGRFTISRDNAKNTVYLQMNSLKPEDTAVYYCNKVRRYYYRTHNDFWGQGTQVTVSS | high polyreactivity
QVQLVESGGGLVHAGGSLRLSCASTGFIYQPYAMGWYRQAPGKEMELVAAITSRGGRTYYADSVKGRFTISRDIANNTVYLQMNRLNPVDTAVYYCNADIYASEYYYWGQGTQVTVSS | low polyreactivity
QVQLVESGGGLVHAGGSLRLSCDASGSIFDGYGMGWYRQAPGKERELVASITWNDGSTYYADSVKGRFTISRDNAKNTVYLQMNSLKPEDTAVYYCAADQWGYEYDYWGQGTQVTVSS | low polyreactivity

Sequence | polyreactivity (PSR sort gate)
QVQLVESGGGLVHAGGSRRLSCAASGNFFRYYVLGWYRQAPGTERECVAAITSSGGSKYYADSVKGRFTISRDNANNTVYLQMNSLKPEDTAVYYCAKDYWDPGWAEYDFWGQGTQVTVSS | low polyreactivity
QVQLVESGGGLVHAGGTIEPYAMGWYRQAPGKERELVAPIRTSGGGTYYADSVKGRFTISRDNAKNTVYLQMYSLKPEDTAVYYCAAKSGPTLQRYYSYIFDYWGQGTQVTVSS | low polyreactivity
QVQLVESGGGLVHAGVSLRISCAASGRIFKQYAMGWYRQAPGNERELVAAISVRGGITYYADSVKGRFTISRYHAKNTVYLQMKSLNPEDTAVYYCAKRSYRNHTYDYWGQGTQVTVSS | low polyreactivity
QVQLVESGGGLVHGGGSLSLSFDASGSIFRVYPMGWYSPAPGKERELVAAIDSGPSTTYADCVTGRFTISRDNAKNTVYLLMNRLKPVDTEVYCFAADGWLWSFTGDGWWFDYWGQGTQVSVSS | low polyreactivity
QVQLVESGGGLVHSGGSLRLSCAASGRIFLPYGMGWYRKAPGKERELVATITIGGSTTYADSVKGRFTISRDNAKNTVYLLMNSLKPEDTAVYYCAVLRWVYYLHGYDYWGHGTQVTVSS | low polyreactivity
QVQLVESGGGLVKAGAILRLSCPASGSTFQSYAKGWSRQEPGKESELVAAISSGGITYYADSVKGRFTISRDNAKNTVYFQMNSLKPEDTAVYYCAKVPTYLISNRYSRYDYWGQGTQVTVSS | low polyreactivity
QVQLVESGGGLVKAGCSLRLICAASGSIFYQYAMGWNRQAPGNVRELVAAITRRGSRTYYADSVKGRFTISRDNAKNTVYLQMNSLKPEDTAVYYCAAGSFYGIYYYRTDDYWGQGTQVTVSS | high polyreactivity
QVQLVESGGGLVKAGGILRLSCAASGYIFVRYAMGWYRQAPGKERELVAAISYRGGSTYADSVKGRFTISRDNAKNTVYLQMNRLKPEDTAVYYCAAQRWYVYGQKYHYGYWGQVTQVTVSS | high polyreactivity
QVQLVESGGGLVKAGGSIRLSCAASGSIFTWYAMGWYRQAPGKESELVAAISEDGGSTYYADSVKGRFTISRDNAKNSVFLQMNSLKPEDTAVYYCATPVASVTGYDYWGQGTQVTVSS | low polyreactivity
QVQLVESGGGLVKAGGSLLLSCAASGRTIAYNAMGWYRQATGKERELVDAISNSGGRTYYADSVKGRFTISRDNAKNTVYLQMKSLKPEDTAVYYCAAYPVYRSVVSAYGYNYWGQGTQVTVSS | high polyreactivity
QVQLVESGGGLVKAGGSLLLSCAASGSTFRVNFMGWYRKSPGKERELVAAITTSGGSKYYADSVKGRFTITRDNAKNSVFLQMNSEKLDDTAVYFCNTTYPSGWGPETDYWGQGIQVTVSS | low polyreactivity
QVQLVESGGGLVKAGGSLRLRCAAAGLILYPYAMGWYRQAPGKESELVAAITSDGSTYYADSVKGRFTISRVNAKNTVYLQMNSLKQEDTAVYYCAVVVAYFDDDYGLSWFYEYDYWGQGTQVTVSS | low polyreactivity
QVQLVESGGGLVKAGGSLRLSCAASGFIFGYNAMGWDRQAPGKERELVAVITDSSDSTYYADSVKGRFTISRDNAMNTVYLQMNSLKPEDTAVYYCDTDYGYAGDYWGQGTQVTVSS | low polyreactivity
QVQLVESGGGLVKAGGSLRLSCAASGFILRAYAMGWYRQAPGKEREFVAAITRRGGRTYYADSVKGRFTISRDNAKKTVSLQMYSLKPEDTAVYYCNRVERRGTYDYWGQGTQVTVSS | high polyreactivity
QVQLVESGGGLVKAGGSLRLSCAASGFIYKFYAMGWYRQAPRKERELVAAINYSGGSTYYADSVKGRFTISRDNAKNTVYLKMNSLKPEDTAVFYCNALYTYGWYSDDYWGQGTQVTVSS | high polyreactivity
QVQLVESGGGLVKAGGSLRLSCAASGFTFPQYAMGWYRQAPGKESELVAAISKRSGGTRYADSVKGRFTISRDNAKNTVYLQMNSLKPEDTAVYYCAAATPSGYYYWGQGTQVTVSS | high polyreactivity
QVQLVESGGGLVKAGGSLRLSCAASGFTFRRNAMGWYRQAPGKERELVAAITYNGGTTYYADSVKGRFTISRDNAKNTVYLQMNSLKPEDTAVDYCNAPYGRQGYDYWGQGTQVTVSS | low polyreactivity
QVQLVESGGGLVKAGGSLRLSCAASGGTFPLYAMGWYRQAPGKERELVAAIRWSGGRTYYADSVKGRFTISRDNAKNTVYLQMNSLKPEDTAVYYCSADYDDGWGYDYWGQGTQVTVSS | high polyreactivity
QVQLVESGGGLVKAGGSLRLSCAASGNIFRRYAMGWYRQARGKERELVAAITWRGGNTYYADSVKGRFTISRDNAKNTVYLQMNCLKPEDTAVYYCNRVYRQRLGRDYWGLGTQVTVSS | high polyreactivity
QVQLVESGGGLVKAGGSLRLSCAASGRIDWYYAMGLYRQAPRKERDLVAAISRSGGTTYYADSVKGRFTISRDNAKNSVFLQMNSLQPEDTEVYYCAAVFHAYTGYEAWEEYEYWGQGTQVTVSA | high polyreactivity
